Assay results published in patent US20240116985A1 (published 2024).
Starred links: 1 amine or outer side, 2 acyl side, 3 side chain; linkers in the order of their positions; H or OH if unused. Positions of bridges follow the written chain, without caps; N, C: chain ends. Non-standard residues stand in square brackets, D forms with d. Groups on a side chain read outwards from the residue. Primed or numbered codes have the meaning given here. No end group written: not given here. *: point of attachment. (4Pippip)GlnR = (S)-5-([1,4'-bipiperidin]-1'-yl)-2-amino-5-oxopentanoic acid (Gln side-chain amide with 4-piperidinopiperidine), O=C(CC[C@H](N[*:1])C(=O)[*:2])N1CCC(N2CCCCC2)CC1; (4MePpzPip)GlnR = (S)-2-amino-5-(4-(4-methylpiperazin-1-yl)piperidin-1-yl)-5-oxopentanoic acid, CN1CCN(C2CCN(C(=O)CC[C@H](N[*:1])C(=O)[*:2])CC2)CC1; (Me2NPrPip)GlnR = (S)-2-amino-5-(4-(3-(dimethylamino)propyl)piperazin-1-yl)-5-oxopentanoic acid, CN(C)CCCN1CCN(C(=O)CC[C@H](N[*:1])C(=O)[*:2])CC1; PyrS2″ = (S)-3-amino-1-((pent-4-en-1-yloxy)carbonyl)pyrrolidine-3-carboxylic acid (stapling residue), C=CCCCOC(=O)N1CC[C@@](N[*:1])(C(=O)[*:2])C1; (TfePpz)GlnR = (S)-2-amino-5-oxo-5-(4-(2,2,2-trifluoroethyl)piperazin-1-yl)pentanoic acid, O=C(CC[C@H](N[*:1])C(=O)[*:2])N1CCN(CC(F)(F)F)CC1; (RDMAPyr)GlnR = (S)-2-amino-5-((R)-3-(dimethylamino)pyrrolidin-1-yl)-5-oxopentanoic acid, CN(C)[C@@H]1CCN(C(=O)CC[C@H](N[*:1])C(=O)[*:2])C1; B5(4) = 2,2-bis(4-pentenyl)glycine = 2-amino-2-(pent-4-en-1-yl)hept-6-enoic acid (stitching residue), C=CCCCC(CCCC=C)(N[*:1])C(=O)[*:2]; (CH2NMe2)4SEF = (S)-2-amino-3-(4-(3-(dimethylamino)prop-1-yn-1-yl)phenyl)propanoic acid, CN(C)CC#Cc1ccc(C[C@H](N[*:1])C(=O)[*:2])cc1; TfeGA = (S)-2-amino-3-((carboxymethyl)(2,2,2-trifluoroethyl)amino)propanoic acid, O=C([C@H](CN(CC(=O)[*:3])CC(F)(F)F)N[*:1])[*:2]; PyrS2 = (S)-3-amino-1-((pent-4-en-1-yloxy)carbonyl)pyrrolidine-3-carboxylic acid, C=CCCCOC(=O)N1CC[C@@](N[*:1])(C(=O)[*:2])C1; PyrS1 = (S)-3-amino-1-((but-3-en-1-yloxy)carbonyl)pyrrolidine-3-carboxylic acid, C=CCCOC(=O)N1CC[C@@](N[*:1])(C(=O)[*:2])C1; B5(19) = 2-amino-2-(pent-4-en-1-yl)hept-6-enoic acid (bis(4-pentenyl)glycine), C=CCCCC(CCCC=C)(N[*:1])C(=O)[*:2]; F2PipNva = (S)-2-amino-5-(4,4-difluoropiperidin-1-yl)pentanoic acid, O=C([C@H](CCCN1CCC(F)(F)CC1)N[*:1])[*:2]; Lithocholoyl = C[C@H](CCC(=O)*)[C@H]1CC[C@H]2[C@@H]3CC[C@@H]4C[C@H](O)CC[C@]4(C)[C@H]3CC[C@]12C; MorphAsn = (S)-2-amino-4-morpholino-4-oxobutanoic acid, O=C(C[C@H](N[*:1])C(=O)[*:2])N1CCOCC1; B5(3) = 2,2-bis(4-pentenyl)glycine (stitching residue), C=CCCCC(CCCC=C)(N[*:1])C(=O)[*:2]; Me3AdamantC = 3,5,7-trimethyladamantane-1-carbonyl, CC12CC3(C)CC(C)(C1)CC(C(=O)*)(C2)C3; Phe(3-CF3) = N[C@@H](Cc1cccc(C(F)(F)F)c1)C(=O)O; Phe(4-CF3) = N[C@@H](Cc1ccc(C(F)(F)F)cc1)C(=O)O; Nva(5-morpholino) = N[C@@H](CCCN1CCOCC1)C(=O)O; Phe(2-CF3) = N[C@@H](Cc1ccccc1C(F)(F)F)C(=O)O; Phe(2-Cl) = N[C@@H](Cc1ccccc1Cl)C(=O)O; Bta = N[C@@H](Cc1csc2ccccc12)C(=O)O; αAllylPro = C=CC[C@@]1(C(=O)O)CCCN1; tBuAla = CC(C)(C)C[C@H](N)C(=O)O; 3Thi = N[C@@H](Cc1ccsc1)C(=O)O; S5 = C=CCCC[C@](C)(N)C(=O)O; TfeGA″ = not defined here; PEG2′ = not defined here; Aib = CC(C)(N)C(=O)O

T1: B-cat-Halo (beta-catenin HaloTag NanoBRET construct expressed in HEK293 cells) (UniProt P35222 1-781, HaloTag NanoBRET 618 Ligand bound in the assay)
T1 sequence (looked up): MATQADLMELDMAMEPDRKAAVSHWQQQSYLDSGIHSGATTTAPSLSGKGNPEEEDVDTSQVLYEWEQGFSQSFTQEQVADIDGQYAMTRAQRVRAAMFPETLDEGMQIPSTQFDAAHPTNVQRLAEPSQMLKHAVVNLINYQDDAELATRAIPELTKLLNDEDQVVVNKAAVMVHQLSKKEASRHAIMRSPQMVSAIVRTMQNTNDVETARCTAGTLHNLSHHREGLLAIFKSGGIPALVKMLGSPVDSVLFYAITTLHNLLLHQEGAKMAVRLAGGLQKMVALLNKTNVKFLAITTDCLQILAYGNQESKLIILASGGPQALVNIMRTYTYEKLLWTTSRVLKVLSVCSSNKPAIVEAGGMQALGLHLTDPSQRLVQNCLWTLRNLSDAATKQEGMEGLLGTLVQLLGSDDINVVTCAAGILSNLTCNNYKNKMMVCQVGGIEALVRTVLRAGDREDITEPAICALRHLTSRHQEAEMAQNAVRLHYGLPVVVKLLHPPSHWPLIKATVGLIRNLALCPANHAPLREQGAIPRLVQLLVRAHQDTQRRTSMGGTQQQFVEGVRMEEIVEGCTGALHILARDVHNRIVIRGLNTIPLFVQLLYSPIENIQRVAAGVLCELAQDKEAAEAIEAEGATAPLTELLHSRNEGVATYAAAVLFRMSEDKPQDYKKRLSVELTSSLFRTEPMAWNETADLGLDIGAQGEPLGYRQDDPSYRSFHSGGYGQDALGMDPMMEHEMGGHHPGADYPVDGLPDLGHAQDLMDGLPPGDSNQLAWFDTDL

T2: Bcat-Halo (beta-catenin HaloTag construct transfected into HEK293 cells) (UniProt P35222 1-781)
T2 sequence (looked up): T1 sequence (looked up)

T3: Bcat-Halo (beta-catenin HaloTag fusion expressed in HEK293 cells) (UniProt P35222 1-781)
T3 sequence (looked up): T1 sequence (looked up)

B1: I-1807 (peptide)
peptide: Ac-[αAllylPro]D[tBuAla][S5]DDAAFL[Aib][3Thi][Bta]Q-NH2
modifications: staple 1-4; not fully specified; printed as Ac-PL3-Asp-Npg-S5-Asp-Asp-Ala-Ala-Phe-Leu-Aib-3Thi-BztA-Gln-NH2
B2: I-1813 (peptide)
peptide: Ac-[αAllylPro]D[tBuAla][B5(19)]DDAAFN[PyrS1][3Thi][Bta]Q-NH2
modifications: staple 1-4, 4-11; not fully specified; printed as Ac-PL3-Asp-Npg-B5-Asp-Asp-Ala-Ala-Phe-Asn-PyrS1-3Thi-BztA-Gln-NH2

Molecular target: T1, B-cat-Halo (beta-catenin HaloTag …)
Assay: cell-based or functional assay

Row | NanoBRET Abs IC50 [µM] | Binder
1 | 9.3 | Ac-[αAllylPro]D[tBuAla][B5(3)]D[TfeGA]AAFL[PyrS2″][3Thi][Bta][(RDMAPyr)GlnR]-NH2 (staple 1-4, 4-11; not fully specified) [I-1805]
2 | 9.4 | Ac-[αAllylPro]D[tBuAla][B5(3)]D[TfeGA]AAFL[PyrS2″][3Thi][Bta][(RDMAPyr)GlnR]-NH2 (staple 1-4, 4-11; not fully specified) [I-1804]
3 | > 20 | B1
4 | > 20 | B2
5 | 17.5 | Ac-[αAllylPro]D[tBuAla][B5(3)]D[TfeGA]AAFL[PyrS2″][3Thi][Bta][(4MePpzPip)GlnR]-NH2 (staple 1-4, 4-11; not fully specified) [I-1801]
6 | 25.2 | Ac-[αAllylPro]D[tBuAla][B5(3)]D[TfeGA″]AAFL[PyrS2″][3Thi][Bta][(4MePpzPip)GlnR]-NH2 (staple 1-4, 4-11; not fully specified; reading uncertain) [I-1802]
7 | 25.8 | Ac-[αAllylPro]D[tBuAla][B5(3)]D[TfeGA]AAFL[PyrS2″][3Thi][Bta][(Me2NPrPip)GlnR]-NH2 (staple 1-4, 4-11; not fully specified) [I-1799]
8 | 22.5 | Ac-[αAllylPro]D[tBuAla][B5(3)]D[TfeGA]AAFL[PyrS2″][3Thi][Bta][(4Pippip)GlnR]-NH2 (staple 1-4, 4-11; not fully specified) [I-1797]
9 | 25.2 | Ac-[αAllylPro]D[tBuAla][B5(3)]D[TfeGA″]AAFL[PyrS2″][3Thi][Bta][(Me2NPrPip)GlnR]-NH2 (staple 1-4, 4-11; not fully specified; reading uncertain) [I-1800]
10 | 7.4 | Ac-[αAllylPro]D[tBuAla][B5(3)]D[TfeGA]AAFL[PyrS2″][3Thi][Bta][(TfePpz)GlnR]-NH2 (staple 1-4, 4-11) [I-1803]
11 | 14 | Ac-[αAllylPro]D[tBuAla][B5(3)]DDAAFL[PyrS2″][3Thi][Bta]Q-NH2 (staple 1-4, 4-11; also: staple olefins reduced to -CH2-CH2-) [I-1808]

Molecular target: T2, Bcat-Halo (beta-catenin HaloTag …)
Assay: cell-based or functional assay

Row | NanoBRET Abs IC50 [µM] | Binder
12 | 9.6 | Ac-[αAllylPro]D[tBuAla][B5(4)]DD[(CH2NMe2)4SEF]AFL[PyrS2]F[Bta]Q (staple 1-4, 4-11) [I-1467]
13 | > 20 | Ac-[αAllylPro]D[tBuAla][B5(3)]DD[MorphAsn]AFL[PyrS2″][3Thi][Bta]Q-NH2 (staple 1-4, 4-11) [I-1483]
14 | > 20 | Ac-[αAllylPro]DK(Me3AdamantC)[B5(4)]DDAAFL[PyrS2][3Thi][Bta]Q-NH2 (staple 1-4, 4-11) [I-1471]
15 | 18 | Ac-[αAllylPro]D[tBuAla][B5(3)]DD[F2PipNva]AFL[PyrS2″][3Thi][Bta]Q-NH2 (staple 1-4, 4-11) [I-1482]
16 | 9.3 | Ac-[αAllylPro]D[tBuAla][B5(3)]DDAAFL[PyrS2″][3Thi][Bta]QK([PEG2′-Me3AdamantC])-NH2 (staple 1-4, 4-11) [I-1480]
17 | > 20 | Ac-[αAllylPro]DK([PEG2′-Me3AdamantC])[B5(4)]DDAAFL[PyrS2][3Thi][Bta]Q-NH2 (staple 1-4, 4-11) [I-1472]
18 | 39.7 | Ac-[αAllylPro]D[tBuAla][B5(3)]DD[Nva(5-morpholino)]AFL[PyrS2″][3Thi][Bta]Q-NH2 (staple 1-4, 4-11) [I-1481]
19 | > 20 | Ac-[αAllylPro]D[tBuAla][B5(4)]DDAK([PEG2′-Lithocholoyl])FL[PyrS2″][3Thi][Bta]Q-NH2 (staple 1-4, 4-11) [I-1474]
20 | > 20 | Ac-[αAllylPro]DK([PEG2′-Lithocholoyl])[B5(4)]DDAAFL[PyrS2][3Thi][Bta]Q-NH2 (staple 1-4, 4-11) [I-1470]
21 | 17.1 | Ac-[αAllylPro]D[tBuAla][B5(4)]DDAAFL[PyrS2″][3Thi][Bta]QK([PEG2′-Lithocholoyl])-NH2 (staple 1-4, 4-11) [I-1478]
22 | > 20 | Ac-[αAllylPro]D[tBuAla][B5(4)]DDAK([PEG2′-Me3AdamantC])FL[PyrS2″][3Thi][Bta]Q-NH2 (staple 1-4, 4-11) [I-1476]

Molecular target: T3, Bcat-Halo (beta-catenin HaloTag fusion …)
Assay: cell-based or functional assay

Row | NanoBRET Abs IC50 [µM] | Binder
23 | 5.5 | Ac-[αAllylPro]D[tBuAla][B5(4)]DDAAF[Phe(2-CF3)][PyrS2][3Thi][Bta]Q-NH2 (staple 1-4, 4-11) [I-1363]
24 | > 20 | [αAllylPro]D[tBuAla][B5(4)]DDAAFL[PyrS2]F[Bta]Q-NH2 (staple 1-4, 4-11) [I-1361]
25 | 7.5 | Ac-[αAllylPro]D[tBuAla][B5(4)]DDAAFF[PyrS2][Phe(2-Cl)][Bta]Q-NH2 (staple 1-4, 4-11) [I-1366]
26 | 14.2 | Ac-[αAllylPro]D[tBuAla][B5(4)]DDAAF[Phe(3-CF3)][PyrS2][Phe(2-Cl)][Bta]Q-NH2 (staple 1-4, 4-11) [I-1368]
27 | 9.9 | Ac-[αAllylPro]D[tBuAla][B5(4)]DDAAF[Phe(4-CF3)][PyrS2][Phe(2-Cl)][Bta]Q-NH2 (staple 1-4, 4-11) [I-1369]
28 | 7.8 | Ac-[αAllylPro]D[tBuAla][B5(4)]DDAAF[Phe(2-CF3)][PyrS2][Phe(2-Cl)][Bta]Q-NH2 (staple 1-4, 4-11) [I-1367]
29 | 10.5 | Ac-[αAllylPro]D[tBuAla][B5(4)]DDAAF[Phe(3-CF3)][PyrS2][3Thi][Bta]Q-NH2 (staple 1-4, 4-11) [I-1364]
30 | 9.7 | Ac-[αAllylPro]D[tBuAla][B5(4)]DDAAF[Phe(4-CF3)][PyrS2][3Thi][Bta]Q-NH2 (staple 1-4, 4-11) [I-1365]
31 | 19.6 | [αAllylPro]D[tBuAla][B5(4)]DDAAFL[PyrS2]F[Bta]Q-NH2 (staple 1-4, 4-11) [I-1362]
